Laboratory results taken from patent publication US20200385441A1 (TECHNION RESEARCH AND DEVELOPMENT FOUNDATION, published 2020).

Molecular target: T1, human Melanoma-associated Chondroitin Sulfate Proteoglycan (MCSP) (human, UniProt Q6UVK1 30-2322)
T1 construct: whole, on cells; also called CSPG4; NG2
Assay: flow cytometry on B16F10-MCSP (C25) cells, detected with Strep-PE or fold-specific anti-H-2K antibody

T1 sequence (Q6UVK1 30-2322): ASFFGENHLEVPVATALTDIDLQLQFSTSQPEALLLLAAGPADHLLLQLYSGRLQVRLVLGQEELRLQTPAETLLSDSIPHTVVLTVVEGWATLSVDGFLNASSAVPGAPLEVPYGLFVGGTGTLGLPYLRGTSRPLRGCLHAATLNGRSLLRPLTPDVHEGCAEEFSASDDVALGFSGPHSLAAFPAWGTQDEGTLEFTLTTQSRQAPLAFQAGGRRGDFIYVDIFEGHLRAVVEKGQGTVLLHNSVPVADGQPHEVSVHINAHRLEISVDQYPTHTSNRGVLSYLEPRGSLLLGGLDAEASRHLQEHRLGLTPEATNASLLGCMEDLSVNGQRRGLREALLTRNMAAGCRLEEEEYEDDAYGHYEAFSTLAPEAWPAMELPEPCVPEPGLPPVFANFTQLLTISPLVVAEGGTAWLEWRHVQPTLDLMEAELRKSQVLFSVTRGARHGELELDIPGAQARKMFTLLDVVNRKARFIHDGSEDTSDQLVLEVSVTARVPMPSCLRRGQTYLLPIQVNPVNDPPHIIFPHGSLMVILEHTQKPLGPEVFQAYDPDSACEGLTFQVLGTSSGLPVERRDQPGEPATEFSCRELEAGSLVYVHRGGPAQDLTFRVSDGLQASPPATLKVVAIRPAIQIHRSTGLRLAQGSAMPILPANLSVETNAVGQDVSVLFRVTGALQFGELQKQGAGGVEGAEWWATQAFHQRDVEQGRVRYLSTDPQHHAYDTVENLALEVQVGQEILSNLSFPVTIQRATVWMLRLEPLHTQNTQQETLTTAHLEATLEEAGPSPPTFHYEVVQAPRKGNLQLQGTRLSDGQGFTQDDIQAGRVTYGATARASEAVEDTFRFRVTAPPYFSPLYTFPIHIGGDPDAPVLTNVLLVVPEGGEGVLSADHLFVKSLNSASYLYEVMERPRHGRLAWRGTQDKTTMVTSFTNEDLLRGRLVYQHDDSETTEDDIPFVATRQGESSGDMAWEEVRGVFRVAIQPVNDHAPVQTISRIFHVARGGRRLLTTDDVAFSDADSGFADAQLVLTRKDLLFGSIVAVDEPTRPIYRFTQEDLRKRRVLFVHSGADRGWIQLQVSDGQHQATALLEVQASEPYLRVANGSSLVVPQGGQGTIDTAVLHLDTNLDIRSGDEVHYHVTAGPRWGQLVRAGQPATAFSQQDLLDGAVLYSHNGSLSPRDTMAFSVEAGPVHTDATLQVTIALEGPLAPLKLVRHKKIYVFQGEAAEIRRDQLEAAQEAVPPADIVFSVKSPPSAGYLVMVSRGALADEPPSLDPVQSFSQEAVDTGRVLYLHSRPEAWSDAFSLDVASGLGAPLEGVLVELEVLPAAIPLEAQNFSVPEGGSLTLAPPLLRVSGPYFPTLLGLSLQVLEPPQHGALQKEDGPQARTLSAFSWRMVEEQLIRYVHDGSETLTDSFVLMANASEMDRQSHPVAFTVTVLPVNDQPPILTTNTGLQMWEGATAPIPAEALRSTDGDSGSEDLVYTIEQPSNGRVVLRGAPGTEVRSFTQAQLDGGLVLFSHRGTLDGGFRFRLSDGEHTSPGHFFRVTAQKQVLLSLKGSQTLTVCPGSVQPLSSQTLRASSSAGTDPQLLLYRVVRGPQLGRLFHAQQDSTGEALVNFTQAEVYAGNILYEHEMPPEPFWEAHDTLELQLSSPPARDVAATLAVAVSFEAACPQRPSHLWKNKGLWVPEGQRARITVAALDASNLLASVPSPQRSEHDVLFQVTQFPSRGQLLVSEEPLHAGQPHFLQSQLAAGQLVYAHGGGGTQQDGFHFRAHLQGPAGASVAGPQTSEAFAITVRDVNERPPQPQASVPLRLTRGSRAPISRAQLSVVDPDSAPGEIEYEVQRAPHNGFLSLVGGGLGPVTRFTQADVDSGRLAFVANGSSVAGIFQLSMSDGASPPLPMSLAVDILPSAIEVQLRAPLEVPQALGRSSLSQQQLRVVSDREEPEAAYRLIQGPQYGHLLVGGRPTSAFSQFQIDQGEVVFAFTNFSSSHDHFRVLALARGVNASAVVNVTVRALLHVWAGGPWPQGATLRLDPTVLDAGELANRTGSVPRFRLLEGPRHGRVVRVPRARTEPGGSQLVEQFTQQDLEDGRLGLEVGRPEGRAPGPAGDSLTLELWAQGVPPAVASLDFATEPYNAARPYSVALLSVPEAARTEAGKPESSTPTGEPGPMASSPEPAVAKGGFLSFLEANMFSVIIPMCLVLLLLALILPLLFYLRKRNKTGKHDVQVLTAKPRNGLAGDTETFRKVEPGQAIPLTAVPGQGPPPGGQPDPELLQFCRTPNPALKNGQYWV

B1: BA5 biotinylated peptide-H-2Kb-anti-MCSP scFv fusion protein, 20 amino acid β2M-MHC linker (peptide-MHC)
chain: RTYTYEKLGGGGSGGGGSGGGGSIQKTPQIQVYSRHPPENGKPNILNCYVTQFHPPHIEIQMLKNGKKIPKVEMSDMSFSKDWSFYILAHTEFTPTETDTYACRVKHVSMAEPKTVYWDRDMGGGGSGGGGSGGGGSGGGGSGPHSLRYFVTAVSRPGLGEPRYMEVGYVDDTEFVRFDSDAENPRYEPRARWMEQEGPEYWERETQKAKGNEQSFRVDLRTLLGYYNQSKGGSHTIQVISGCEVGSDGRLLRGYQQYAYDGCDYIALNEDLKTWTAADMAALITKHKWEQAGEAERLRAYLEGTCVEWLRRYLKNGNATLLRTDSPKAHVTHHSRPEDKVTLRCWALGFYPADITLTWQLNGEELIQDMELVETRPAGDGTFQKWASVVVPLGKEQYYTCHVYHQGLPEPLTLRWEPPPSTASGGQVKLQQSGGGLVQPGGSMKLSCVVSGFTFSNYWMNWVRQSPEKGLEWIAEIRLKSNNFGRYYAESVKGRFTISRDDSKSSAYLQMINLRAEDTGIYYCTSYGNYVGHYFDHWGQGTTVTVSSGGGGSGGGGSGGGGSDIELTQSPKFMSTSVGDRVSVTCKASQNVDTNVAWYQQKPGQSPEPLLFSASYRYTGVPDRFTGSGSGTDFTLTISNVQSEDLAEYFCQQYNSYPLTFGGGTKLEIKRAHHHHHHGLNDIFEAQKIEWH
notes: also called BA-biotin fusion molecule; biotinylated ScFv-MHC molecule
binding result: binds
